The source of these data is the Immune Epitope Database (IEDB).

What is called IC50 is the midpoint of a concentration-inhibition curve.

Assay [1] deals with HLA-A*68:02. As to the kind of experiment: IEDB peptide-MHC binding, cellular MHC/competitive/fluorescence; ≥ and ≤ were set here for values at or beyond the usual limits of such assays.
Assay [2] deals with HLA-A*02:01. Briefly: IEDB peptide-MHC binding, purified MHC/competitive/radioactivity; ≥ and ≤ were set here for values at or beyond the usual limits of such assays.
In assay [3] the target is HLA-A*02:02. Described as above.
Assay [4] deals with HLA-A*02:06. The description is as above.
The target of assay [5] is HLA-A*02:03. Described as above.
[6] abbreviates: source organism: Vaccinia virus WR.
Setting [7] is: source organism: Hepacivirus hominis.
Where [8] appears, read: source organism: Mammarenavirus lassaense.
The mark [9] stands for this setting: source organism: Mammarenavirus choriomeningitidis.

Take LLNMRDLIVT: the IC50 is 33200 nM in assay [1] (setting [6]); 2020 nM in assay [2] (setting [6]); 1420 nM in assay [3] (setting [6]); 707 nM in assay [4] (setting [6]); 557 nM in assay [5] (setting [6]).
Take LLNVQTLISL: the concentration for half-maximal inhibition (IC50) in assay [1] (setting [6]) was determined as 14500 nM; in assay [2] (setting [6]), 73 nM; in assay [3] (setting [6]), 24 nM; in assay [4] (setting [6]), 97 nM; in assay [5] (setting [6]), 16 nM.
Take LLPLTSLVI: the IC50 in assay [1] (setting [6]) was not below 70000 nM; in assay [2] (setting [6]) it was 1180 nM; in assay [3] (setting [6]) it was 2390 nM; in assay [4] (setting [6]) it was 1430 nM; in assay [5] (setting [6]), 621 nM.
In the case of LLSTTEWQV, the concentration for half-maximal inhibition (IC50) in assay [1] (setting [7]) came to 27300 nM; in assay [2] (setting [7]) it was 67 nM; in assay [3] (setting [7]), 4.9 nM; in assay [4] (setting [7]), 333 nM; in assay [5] (setting [7]), 95 nM.
The corresponding values for LLSVGVGIYL are 20100 nM, 18 nM, 12 nM, 575 nM and 568 nM.
For LLVAAGMEA, the IC50 in assay [1] (source organism: SARS-CoV1) was determined as 19300 nM; in assay [2] (source organism: SARS-CoV1), 51 nM; in assay [3] (source organism: SARS-CoV1), 17 nM; in assay [4] (source organism: SARS-CoV1), 117 nM; in assay [5] (source organism: SARS-CoV1) it was 17 nM.
Take LLVQYGAKI: the IC50 in assay [1] (setting [6]) was determined as 6430 nM; in assay [2] (setting [6]), 1770 nM; in assay [3] (setting [6]), 206 nM; in assay [4] (setting [6]) it was 1140 nM; in assay [5] (setting [6]), 358 nM.
In the case of LLVTLAILTA, the IC50 was 16700 nM in assay [1] (source organism: SARS-CoV1); 33 nM in assay [2] (source organism: SARS-CoV1); 4.4 nM in assay [3] (source organism: SARS-CoV1); 32 nM in assay [4] (source organism: SARS-CoV1); 43 nM in assay [5] (source organism: SARS-CoV1).
Turning to LLWDYMCIS, the IC50 was 12700 nM in assay [1] (setting [8]); 45 nM in assay [2] (setting [8]); 147 nM in assay [3] (setting [8]); 408 nM in assay [4] (setting [8]); 597 nM in assay [5] (setting [8]).
With LLYFILFFV, the IC50 in assay [1] (setting [7]) came to 23000 nM; in assay [2] (setting [7]) it was 164 nM; in assay [3] (setting [7]), 227 nM; in assay [4] (setting [7]), 504 nM; in assay [5] (setting [7]) it was 323 nM.
For LLYFILFFVA, the IC50 in assay [1] (setting [7]) is not below 70000 nM; in assay [2] (setting [7]) it was 1120 nM; in assay [3] (setting [7]), 3740 nM; in assay [4] (setting [7]) it was 993 nM; in assay [5] (setting [7]), 4700 nM.
Regarding LMLKATLLCV, the IC50 was found to be 8860 nM in assay [1] (source organism: SARS-CoV1); 19 nM in assay [2] (source organism: SARS-CoV1); 3.4 nM in assay [3] (source organism: SARS-CoV1); 63 nM in assay [4] (source organism: SARS-CoV1); 21 nM in assay [5] (source organism: SARS-CoV1).
For LMWFIISIV, the concentration for half-maximal inhibition (IC50) stood at 18400 nM in assay [1] (source organism: SARS-CoV1); 9.8 nM in assay [2] (source organism: SARS-CoV1); 60 nM in assay [3] (source organism: SARS-CoV1); 27 nM in assay [4] (source organism: SARS-CoV1); 7.2 nM in assay [5] (source organism: SARS-CoV1).
With LNISGYNFSL, the IC50 in assay [1] (setting [8]) stood at 6000 nM; in assay [2] (setting [8]), 375 nM; in assay [3] (setting [8]) it was 16 nM; in assay [4] (setting [8]), 421 nM; in assay [5] (setting [8]), 4550 nM.
For the sequence LQISRVNDL, the IC50 was not below 70000 nM in assay [1] (setting [6]); 1700 nM in assay [2] (setting [6]); 90 nM in assay [3] (setting [6]); 229 nM in assay [4] (setting [6]); 11 nM in assay [5] (setting [6]).
In the case of LSAEELMSL, the concentration for half-maximal inhibition (IC50) in assay [1] (setting [9]) is 5820 nM; in assay [2] (setting [9]) it was 2210 nM; in assay [3] (setting [9]), 65 nM; in assay [4] (setting [9]), 66 nM; in assay [5] (setting [9]) it was 706 nM.
Consider LVFLILCFT, for which the IC50 in assay [1] (source organism: SARS-CoV1) was determined as 6680 nM; in assay [2] (source organism: SARS-CoV1) it was 507 nM; in assay [3] (source organism: SARS-CoV1), 2490 nM; in assay [4] (source organism: SARS-CoV1) it was 1370 nM; in assay [5] (source organism: SARS-CoV1), 1850 nM.
Regarding LVTSFLLMIV, the IC50 was determined as 5740 nM in assay [1] (source organism: SARS-CoV1); 775 nM in assay [2] (source organism: SARS-CoV1); 31 nM in assay [3] (source organism: SARS-CoV1); 161 nM in assay [4] (source organism: SARS-CoV1); 12 nM in assay [5] (source organism: SARS-CoV1).
Consider MLCLLLLSV, for which the IC50 in assay [1] (setting [7]) turned out to be 15400 nM; in assay [2] (setting [7]), 142 nM; in assay [3] (setting [7]) it was 210 nM; in assay [4] (setting [7]), 326 nM; in assay [5] (setting [7]), 263 nM.
As to MLDDFSAGA, the IC50 was 10500 nM in assay [1] (setting [6]); 0.43 nM in assay [2] (setting [6]); 68 nM in assay [3] (setting [6]); 114 nM in assay [4] (setting [6]); 73 nM in assay [5] (setting [6]).
As to MLLIAQAEA, the IC50 in assay [1] (setting [7]) was 6150 nM; in assay [2] (setting [7]), 82 nM; in assay [3] (setting [7]), 141 nM; in assay [4] (setting [7]), 645 nM; in assay [5] (setting [7]) it was 123 nM.
Turning to MLVNGDDLVV, the half-inhibitory concentration (IC50) in assay [1] (setting [7]) worked out at 8980 nM; in assay [2] (setting [7]) it was 56 nM; in assay [3] (setting [7]) it was 54 nM; in assay [4] (setting [7]) it was 186 nM; in assay [5] (setting [7]) it was 104 nM.
For MMQNDYGGM, the IC50 in assay [1] (setting [6]) was not below 70000 nM; in assay [2] (setting [6]) it was 1280 nM; in assay [3] (setting [6]) it was 1080 nM; in assay [4] (setting [6]), 1660 nM; in assay [5] (setting [6]), 2740 nM.
For NLAPHLLLIV, the IC50 was determined as 7240 nM in assay [1] (source organism: SARS-CoV1); 206 nM in assay [2] (source organism: SARS-CoV1); 5.1 nM in assay [3] (source organism: SARS-CoV1); 125 nM in assay [4] (source organism: SARS-CoV1); 1.1 nM in assay [5] (source organism: SARS-CoV1).
